What was measured:
Assay in all cases: BLI; […]; 300 s association, 300 s dissociation; 10x kinetics buffer; […]; global fit, 1:1 model; […]
[1] = molecular target: SARS-CoV-2 BA.2.12.1 RBD, biotinylated (SARS-CoV-2) (UniProt P0DTC2)
[2] = molecular target: SARS-CoV-2 BA.2.75.2 RBD, biotinylated (SARS-CoV-2) (UniProt P0DTC2)
[3] = molecular target: SARS-CoV-2 BA.2.86 RBD, biotinylated (SARS-CoV-2) (UniProt P0DTC2)
[4] = molecular target: SARS-CoV-2 BA.5 RBD, biotinylated (SARS-CoV-2) (UniProt P0DTC2)
[5] = molecular target: SARS-CoV-2 BQ.1.1 RBD, biotinylated (SARS-CoV-2) (UniProt P0DTC2)
[6] = molecular target: SARS-CoV-2 Delta RBD, biotinylated (SARS-CoV-2) (UniProt P0DTC2)
[7] = molecular target: SARS-CoV-2 Wuhan-Hu-1 RBD, biotinylated (SARS-CoV-2) (UniProt P0DTC2)
[8] = molecular target: SARS-CoV-2 XBB.1.5 RBD, biotinylated (SARS-CoV-2) (UniProt P0DTC2)

“TRI2-2 homotrimeric miniprotein inhibitor (designed binder)” was tested, and the Kd [1] was 0.851 nM, the koff [1] was 0.000117 s⁻¹ and the kon [1] was 137000 M⁻¹ s⁻¹. The Kd [2] was 0.542 nM, the koff [2] was 8.93e-05 s⁻¹ and the kon [2] was 165000 M⁻¹ s⁻¹. The Kd [3] was 0.388 nM, the koff [3] was 0.000131 s⁻¹ and the kon [3] was 339000 M⁻¹ s⁻¹. It also gave a Kd [4] of 0.0306 nM, a koff [4] of 9.92e-06 s⁻¹ and a kon [4] of 325000 M⁻¹ s⁻¹. It also gave a Kd [5] of 0.21 nM, a koff [5] of 3.36e-05 s⁻¹ and a kon [5] of 160000 M⁻¹ s⁻¹. It also gave a Kd [6] of 0.00114 nM, a koff [6] of 2.95e-07 s⁻¹ and a kon [6] of 259000 M⁻¹ s⁻¹. For the same substance, the Kd [7] was 0.00121 nM, the koff [7] was 3.46e-07 s⁻¹ and the kon [7] was 286000 M⁻¹ s⁻¹. It also gave a Kd [8] of 0.658 nM, a koff [8] of 0.000105 s⁻¹ and a kon [8] of 160000 M⁻¹ s⁻¹.
